Changes are numbered by the printed parent chain. Several values for one entry are separate records, joined by “and”; a condition that tells them apart may be missing. Equal values may be shown once.
B1: CD443MUT (CD44HABD^R41AR78SY79S), recombinant, unlabeled (domain or fragment, human, UniProt P16070 21-132, looked up)
chain: QIDLNITCRFAGVFHVEKNGAYSISRTEAADLCKAFNSTLPTMAQMEKALSIGFETCSSGFIEGHVVIPRIHPNSICAANNTGVYILTSNTSQYDTYCFNASAPPEEDCTSV
notes: Two preparations (A, B) were used in ITC; also called CD44HABD Arg41Ala, Arg78Ser, Tyr79Ser triple mutant; source: expressed using pET11c vector
B2: GST-tagged CD44 hyaluronan binding domain 21–132 (CD44HABD) (domain or fragment, human, UniProt P16070 21-132, looked up)
chain: B1 chain with A21R, S58R, S59Y
notes: also called GST-HABD; CD44 HABD 21–132; source: recombinant GST fusion-protein, purified as described [27]

Columns and labels:
Details in all cases: both partners purified
[1] = molecular target: T1, recombinant full length human vimentin, His-tagged (human, UniProt P08670 1-466); assay: ITC; 50 mM Tris, 150 mM NaCl, pH 8.0, 25°C; two preparations of CD443MUT (A, B), two pairs of concentrations each; n is vimentin/CD443MUT (mol/mol)
T1 construct: vimentin, human, full length; The oligomeric state in the assays is not measured; the discussion supposes unit-length filaments; also called recombinant vimentin; source: expressed using pET15b vector
T1 sequence (P08670 whole entry): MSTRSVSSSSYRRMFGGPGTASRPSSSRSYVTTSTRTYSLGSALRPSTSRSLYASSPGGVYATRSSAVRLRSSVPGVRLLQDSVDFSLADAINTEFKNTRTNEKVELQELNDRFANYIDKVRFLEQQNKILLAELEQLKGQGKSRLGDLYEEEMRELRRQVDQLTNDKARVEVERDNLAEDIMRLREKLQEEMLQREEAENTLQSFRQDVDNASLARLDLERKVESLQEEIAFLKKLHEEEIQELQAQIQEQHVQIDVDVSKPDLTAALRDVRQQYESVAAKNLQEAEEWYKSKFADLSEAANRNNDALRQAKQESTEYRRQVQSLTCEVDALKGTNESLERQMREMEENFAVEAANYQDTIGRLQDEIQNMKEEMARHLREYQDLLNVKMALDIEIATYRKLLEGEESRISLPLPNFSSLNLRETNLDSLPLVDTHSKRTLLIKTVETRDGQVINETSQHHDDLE

[2] = molecular target: T1, recombinant full length human vimentin, …; assay: SPR; Biacore3000; vimentin amine-coupled to CM5 chip; CD443MUT 0.46–123 µM injected; 50 mM Tris, 150 mM NaCl, pH 8.0; parallel two-site binding model and equilibrium analysis (equation 1)
[3] = molecular target: T1, recombinant full length human vimentin, …; assay: as above; remark: listed apart in the source
[4] = molecular target: T1, recombinant full length human vimentin, …; assay: pull-down; GST-CD44HABD or GST-CD443MUT with recombinant vimentin

Binder	stoichiometry N [1]	KD from equilibrium response values (equation 1) [2]	KD of the high-affinity site (Kdiss1/Kass1) [2]	stoichiometry N [2]	KD of the low affinity site [3]	binding result [4]
B1	9.9 mol/mol and 7.2 mol/mol	15 ± 2 µM	0.074 µM	6.2 mol/mol	15 µM	–
B2	–	–	–	–	–	binds

From publication PMC3244446, “Soluble CD44 Interacts with Intermediate Filament Protein Vimentin on Endothelial Cell Surface” (PLoS ONE, 2011)
